The values below are quoted from earlier work in paper PMC9898751 (The Journal of Biological Chemistry, 2022).

One data set relates to H3K9me2. As to conditions: H3K4me3 present in cis; ref [35].
The next data set concerns H3K27me2. As to conditions: H3K4me3 present in cis; ref [35].
For data set [1] the following is noted: phosphorylation by protein kinase A; ref [29].
The subject of data set [2] is histone peptide bearing H3K4me3 and H3K9me2 in cis. As to conditions: in contrast to PHF8; ref [28].
The subject of a further data set is peptide substrates. To be noted: mass spectrometry– and fluorescence-based demethylase assays on peptide substrates; ref [28].

B1: KIAA1718: KDM7 family Jumonji demethylase (protein, UniProt Q6ZMT4 1-941, looked up)
Lysine-specific demethylase 7A: MAGAAAAVAAGAAAGAAAAAVSVAAPGRASAPPPPPPVYCVCRQPYDVNRFMIECDICKDWFHGSCVGVEEHHAVDIDLYHCPNCAVLHGSSLMKKRRNWHRHDYTEIDDGSKPVQAGTRTFIKELRSRVFPSADEIIIKMHGSQLTQRYLEKHGFDVPIMVPKLDDLGLRLPSPTFSVMDVERYVGGDKVIDVIDVARQADSKMTLHNYVKYFMNPNRPKVLNVISLEFSDTKMSELVEVPDIAKKLSWVENYWPDDSVFPKPFVQKYCLMGVQDSYTDFHIDFGGTSVWYHVLWGEKIFYLIKPTDENLARYESWSSSVTQSEVFFGDKVDKCYKCVVKQGHTLFVPTGWIHAVLTSQDCMAFGGNFLHNLNIGMQLRCYEMEKRLKTPDLFKFPFFEAICWFVAKNLLETLKELREDGFQPQTYLVQGVKALHTALKLWMKKELVSEHAFEIPDNVRPGHLIKELSKVIRAIEEENGKPVKSQGIPIVCPVSRSSNEATSPYHSRRKMRKLRDHNVRTPSNLDILELHTREVLKRLEMCPWEEDILSSKLNGKFNKHLQPSSTVPEWRAKDNDLRLLLTNGRIIKDERQPFADQSLYTADSENEEDKRRTKKAKMKIEESSGVEGVEHEESQKPLNGFFTRVKSELRSRSSGYSDISESEDSGPECTALKSIFTTEESESSGDEKKQEITSNFKEESNVMRNFLQKSQKPSRSEIPIKRECPTSTSTEEEAIQGMLSMAGLHYSTCLQRQIQSTDCSGERNSLQDPSSCHGSNHEVRQLYRYDKPVECGYHVKTEDPDLRTSSWIKQFDTSRFHPQDLSRSQKCIRKEGSSEISQRVQSRNYVDSSGSSLQNGKYMQNSNLTSGACQISNGSLSPERPVGETSFSVPLHPTKRPASNPPPISNQATKGKRPKKGMATAKQRLGKILKLNRNGHARFFV
On to B1, for which the “activity on H3K9me2 with H3K4me3 in cis” value in the data set with H3K9me2 is “inactive on H3K9me2 when H3K4me3 is present in cis”. Besides, the “activity toward H3K27me2 with H3K4me3 in cis” value with H3K27me2 was “more selective toward H3K27me2”.

B2: PHF2: KDM7 family Jumonji demethylase (protein, UniProt O75151 1-1096, looked up)
Lysine-specific demethylase …: MATVPVYCVCRLPYDVTRFMIECDACKDWFHGSCVGVEEEEAPDIDIYHCPNCEKTHGKSTLKKKRTWHKHGPGQAPDVKPVQNGSQLFIKELRSRTFPSAEDVVARVPGSQLTLGYMEEHGFTEPILVPKKDGLGLAVPAPTFYVSDVENYVGPERSVDVTDVTKQKDCKMKLKEFVDYYYSTNRKRVLNVTNLEFSDTRMSSFVEPPDIVKKLSWVENYWPDDALLAKPKVTKYCLICVKDSYTDFHIDSGGASAWYHVLKGEKTFYLIRPASANISLYERWRSASNHSEMFFADQVDKCYKCIVKQGQTLFIPSGWIYATLTPVDCLAFAGHFLHSLSVEMQMRAYEVERRLKLGSLTQFPNFETACWYMGKHLLEAFKGSHKSGKQLPPHLVQGAKILNGAFRSWTKKQALAEHEDELPEHFKPSQLIKDLAKEIRLSENASKAVRPEVNTVASSDEVCDGDREKEEPPSPIEATPPQSLLEKVSKKKTPKTVKMPKPSKIPKPPKPPKPPRPPKTLKLKDGGKKKGKKSRESASPTIPNLDLLEAHTKEALTKMEPPKKGKATKSVLSVPNKDVVHMQNDVERLEIREQTKSKSEAKWKYKNSKPDSLLKMEEEQKLEKSPLAGNKDNKFSFSFSNKKLLGSKALRPPTSPGVFGALQNFKEDKPKPVRDEYEYVSDDGELKIDEFPIRRKKNAPKRDLSFLLDKKAVLPTPVTKPKLDSAAYKSDDSSDEGSLHIDTDTKPGRNARVKKESGSSAAGILDLLQASEEVGALEYNPSSQPPASPSTQEAIQGMLSMANLQASDSCLQTTWGAGQAKGSSLAAHGARKNGGGSGKSAGKRLLKRAAKNSVDLDDYEEEQDHLDACFKDSDYVYPSLESDEDNPIFKSRSKKRKGSDDAPYSPTARVGPSVPRQDRPVREGTRVASIETGLAAAAAKLSQQEEQKSKKKKSAKRKLTPNTTSPSTSTSISAGTTSTSTTPASTTPASTTPASTSTASSQASQEGSSPEPPPESHSSSLADHEYTAAGTFTGAQAGRTSQPMAPGVFLTQRRPSASSPNNNTAAKGKRTKKGMATAKQRLGKILKIHRNGKLLL
Regarding B2, the activity before phosphorylation result in data set [1] is “remains inactive until it is phosphorylated by protein kinase A”. For the same molecule, in data set [2], the “activity on single histone peptide bearing H3K4me3 and H3K9me2 in cis” value is “cannot act on a single histone peptide bearing H3K4me3 and H3K9me2 in cis”. For the same molecule, the “enzymatic activity in vitro” value with peptide substrates is “enzymatically inactive in vitro”.
